This is an account of results in patent publication US10808024B2, “Antibodies against immunocomplexes comprising cyanobacterial cyclic peptide hepatotoxins” (priority 2015, dated 2020).

The test system of this assay is immunocomplexes of CCPH variants and anti-Adda mAb. Description: Screening and cross-reactivity studies of anti-IC scFv-AP binders, specificity class. In kind it is binding.

B1: SA51F6: group-specific anti-immunocomplex antibody (antibody, V domains shown)
VH: EVQLLESGGGLVQPGGSLRLSCAASGFTFSDYWMHWVRQAPGKGLEWVSEIWYSSGYTNYADSVKGRFTISRDNSKNTLYLQMNSLRAEDTAVYYCARDAFPWDVFDYWGQGTLVTVSS
VL: EIVLTQSPGTLSLSPGERATLSCRASQSVSSSYLAWYQQKPGQAPRLLIYGASSRATGVPDRFSGSGSGTDFTLTISRLEPEDFAVYYCQQSSSTPWTFGQGTKVEIKRT
modifications: Clone SA51F6; DOMAIN (31)..(35) CDR1; DOMAIN (50)..(66) CDR2; DOMAIN (99)..(108) CDR3; DOMAIN (24)..(35) CDR1; DOMAIN (51)..(57) CDR2; DOMAIN (90)..(98) CDR3
With B1, the “Specificity of anti-IC antibody (CCPH immunocomplexes recognized)” value (from here on “Specificity of anti-IC antibody”) was “group-specific”.

B2: SA42E10: MC subgroup-specific anti-IC binder (antibody, V domains shown)
VH: EVQLLESGGGLVQPGGSLRLSCAASGFTFSDYAMHWVRQAPGKGLEWVSSIIPYTGTTDYADSVKGRFTISRDNSKNTLYLQMNSLRAEDTAVYYCARTDDLIGHYDVYYYFDYWGQGTLVTVSS
VL: EIVLTQSPGTLSLSPGERATLSCRASQSVSSSYLAWYQQKPGQAPRLLIYGASSRATGVPDRFSGSGSGTDFTLTISRLEPEDFAVYYCQQSSSLPWTFGQGTKVEIKRT
modifications: Clone SA42E10; DOMAIN (31)..(35) CDR1; DOMAIN (50)..(66) CDR2; DOMAIN (99)..(114) CDR3; DOMAIN (24)..(35) CDR1; DOMAIN (51)..(57) CDR2; DOMAIN (90)..(98) CDR3
On to B2, for which the “Specificity of anti-IC antibody” value is recorded as “MC subgroup-specific”.

B3: SA57A3: subgroup specific anti-IC antibody with MC-LR preferring specificity (antibody, V domains shown)
VH: EVQLLESGGGLVQPGGSLRLSCAASGFTFSDYYMHWVRQAPGKGLEWVSYINTYDGNTDYADSVKGRFTISRDNSKNTLYLQMNSLRAEDTAVYYCARYYNPYTRRRVFDYWGQGTLVTVSS
VL: EIVLTQSPGTLSLSPGERATLSCRASQSVSSSNLAWYQQKPGQAPRLLIYGASSRATGVPDRFSGSGSGTDFTLTISRLEPEDFAVYYCQQSSSYPWTFGQGTKVEIKRT
modifications: Clone SA57A3; DOMAIN (31)..(35) CDR1; DOMAIN (50)..(66) CDR2; DOMAIN (99)..(111) CDR3; DOMAIN (24)..(35) CDR1; DOMAIN (51)..(57) CDR2; DOMAIN (90)..(98) CDR3
For B3, the “Specificity of anti-IC antibody” value is “MC-LR preferring specificity”.

B4: SA60A1: subgroup specific anti-IC antibody with MC-LR preferring specificity (antibody, V domains shown)
VH: EVQLLESGGGLVQPGGSLRLSCAASGFTFSPYYMHWVRQAPGKGLEWVSYITPYDGYTDYADSVKGRFTISRDNSKNTLYLQMNSLRAEDTAVYYCARYSYVGSVRTRVFDYWGQGTLVTVSS
VL: EIVLTQSPGTLSLSPGERATLSCRASQSVSSSNLAWYQQKPGQAPRLLIYGASSRATGVPDRFSGSGSGTDFTLTISRLEPEDFAVYYCQQSYSYPWTFGQGTKVEIKRT
modifications: Clone SA60A1; DOMAIN (31)..(35) CDR1; DOMAIN (50)..(66) CDR2; DOMAIN (99)..(112) CDR3; DOMAIN (24)..(35) CDR1; DOMAIN (51)..(57) CDR2; DOMAIN (90)..(98) CDR3
Take B4: the “Specificity of anti-IC antibody” value was “MC-LR preferring specificity”.

B5: SA56D5: subgroup specific anti-IC antibody with MC-LR preferring specificity (antibody, V domains shown)
VH: EVQLLESGGGLVQPGGSLRLSCAASGFTFSDYYMHWVRQAPGKGLEWVSYIDGNGGYTDYADSVKGRFTISRDNSKNTLYLQMNSLRAEDTAVYYCARYWFDSSYKHRYFDYWGQGTLVTVSS
VL: EIVLTQSPGTLSLSPGERATLSCRASQSVSSSNLAWYQQKPGQAPRLLIYGASSRATGVPDRFSGSGSGTDFTLTISRLEPEDFAVYYCQQSSSYPWTFGQGTKVEIKRT
modifications: Clone SA56D5; DOMAIN (31)..(35) CDR1; DOMAIN (50)..(66) CDR2; DOMAIN (99)..(112) CDR3; DOMAIN (24)..(35) CDR1; DOMAIN (51)..(57) CDR2; DOMAIN (90)..(98) CDR3
B5: the “Specificity of anti-IC antibody” value is given as “MC-LR preferring specificity”.

B6: SA41A5: MC-XR subgroup-specific anti-IC antibody (antibody, V domains shown)
VH: EVQLLESGGGLVQPGGSLRLSCAASGFTFSNYYMHWVRQAPGKGLEWVSEINYDGETDYADSVKGRFTISRDNSKNTLYLQMNSLRAEDTAVYYCARDGFWYGTAFDYWGQGTLVTVSS
VL: EIVLTQSPGTLSLSPGERATLSCRASQSVSSSALAWYQQKPGQAPRLLIYGASSRATGVPDRFSGSGSGTDFTLTISRLEPEDFAVYYCQQMHSTPWTFGQGTKVEIKRT
modifications: Clone SA41A5; DOMAIN (31)..(35) CDR1; DOMAIN (50)..(66) CDR2; DOMAIN (99)..(108) CDR3; DOMAIN (24)..(35) CDR1; DOMAIN (51)..(57) CDR2; DOMAIN (90)..(98) CDR3
For the molecule B6, the “Specificity of anti-IC antibody” value is given as “specific for a subgroup MC-XR”.

B7: SA51H4: MC-XR subgroup-specific anti-IC antibody (antibody, V domains shown)
VH: EVQLLESGGGLVQPGGSLRLSCAASGFTFSDYWMHWVRQAPGKGLEWVSEIWPYDGYTNYADSVKGRFTISRDNSKNTLYLQMNSLRAEDTAVYYCARDPGPEGVFDYWGQGTLVTVSS
VL: EIVLTQSPGTLSLSPGERATLSCRASQSVSSSNLAWYQQKPGQAPRLLIYGASSRATGVPDRFSGSGSGTDFTLTISRLEPEDFAVYYCQQSSSYPWTFGQGTKVEIKRT
modifications: Clone SA51H4; DOMAIN (31)..(35) CDR1; DOMAIN (50)..(66) CDR2; DOMAIN (99)..(108) CDR3; DOMAIN (24)..(35) CDR1; DOMAIN (51)..(57) CDR2; DOMAIN (90)..(98) CDR3
On to B7, for which the “Specificity of anti-IC antibody” value is recorded as “specific for a subgroup MC-XR”.

B8: SA52C2: MC subgroup-specific anti-IC binder (antibody, V domains shown)
VH: EVQLLESGGGLVQPGGSLRLSCAASGFTFSSDVMHWVRQAPGKGLEWVSEIDPSDGTTNYADSVKGRFTISRDNSKNTLYLQMNSLRAEDTAVYYCARSYLDWPLDVWGQGTLVTVSS
VL: EIVLTQSPGTLSLSPGERATLSCRASQSVSSSNLAWYQQKPGQAPRLLIYGASSRATGVPDRFSGSGSGTDFTLTISRLEPEDFAVYYCQQMHSTPWTFGQGTKVEIKRT
modifications: Clone SA52C2; DOMAIN (31)..(35) CDR1; DOMAIN (50)..(66) CDR2; DOMAIN (99)..(107) CDR3; DOMAIN (24)..(35) CDR1; DOMAIN (51)..(57) CDR2; DOMAIN (90)..(98) CDR3
Take B8: the “Specificity of anti-IC antibody” value is listed as “MC subgroup-specific”.
